Data published in the DeepSol protein solubility set.

Assay: soluble on expression in E. coli; label from the status in PepcDB or PDB records

Row | Sequence | soluble on expression in E. coli
1 | MKVLFAKTFVKDLKHVPGHIRKRIKLIIEECQNSNSLNDLKLDIKKIKGYHNYYRIRVGNYSIGIEVNGDTIIFRRVLHRKSIYDYFP | soluble
2 | EDAWEANDPLGSLSIRYLEAAQDSQWHRELLLAGTDINHHVFRDLVTPRNPRSRFSFAMYLKEQGRMFDFGLLGRPASRHEWSDYLAWVSRQVDSQTCFNTPVTGIDPVLRNGRLHEVRVCTPQTCFTTRNVVLSSGSAPRIPHAFEALLGPTLFHTSQFLTRLQAFGEYLPKRWLVLGSGQSASESVLELVSRDHAIEV | not soluble
3 | MIAQLQKSLIQQNSTFEKKNNVEVAPIAKISLKDRLASLNNSAEQWKSRPERQPAVQQRRTSANVLQDLPIFQRAQQLHQQQQRPQSFPVVQEKPCDITSGLKKFFGSNPTTSGASSSLPKISEITASNDIDLDAISSKATPVLKTVTRPRAPNRKKSDKSSTFDERIRLDAVKIDEEAFAVVEEEPEKLETQEQAIAAIQGAKQLLKSPTKVSPYPDVMLIQVRGSKNVDVRLVAPAMSSVHEVACFVVVHQKHLMKYEGLYSNILEKTKASQLCIEILGKSDLNCTAESIVTVTGASRSTLSKLLFCSENSESSSENNNYHQASSVEPFETTVAKLNLVLRIAGDNTAETCSRRERLSYEIMKPSEVLIFDFGSEIYVWTGRYSNKVSSAYAQEYAKQLMKKPVKNGKFILGDAESIDQDGRPEWTLSRKIHQGVLDTLFKAKFSDWPETREVLTTCKPRALISKKNPEVKTYEDVKVVNQDDEVADLVERMLQEQELDPILVLEDQEIDRKIHDVISEDRSLWVLRGEVLQSIEEFTEHFDSRRCYVLRWKYRIQKSGVRRIKTGKEEERETGRSRIAFWYWLGEHTTPKQHGLCALRIKEIDRDNSPRIRIADGNEPALFLALFDGKFMVSSDISEMKPLRRYVVIGANSRETSLREIDDLNSPLRSHAAYIEVEKDILGPSSVVCGANCTEDQVHFVLAHAEYMRQKAGVKGNSAEIEVEGDKKSRSWVNSNGRKRAMRVWRLFDNESEQVNHLSGHKNCAFTFSQQVLKETILIDVGDALWLWSEEVITTFALKVAEKYWKDRSGPAKVVYKGAEPEQFKGLFMKWEMFEVEDDKPSDPPRDVSDLLKERCRTFSLEELKERTSLPAGMDMRRLESYLTDDDFMKVFKIERSEFYAQKTWKQNDARKRVGLF | not soluble
4 | MGSDKIHHHHHHMNIRKYIWAYVVAMALICPGVKAQEQITIGVIQYDVRDIDKSFKALHEQGFGSCELNYSEKRFTKELAEQVKAASEKHRIRVTTLVGVPGSKSTWNFRQGPATIGLVPIDERFEKLDLYRKMIDFCVQAGIPAMHSHFGFIPEDPSSAQYKDFIEVMRGLATYAKERNVLIYFETGQETPITLIRAIRDIGTGNLFINCDLANLLMYGKSNSLDAVKLFGNLIKEFHAKDGKYPDPNNPYELGHEVPIPTGDVDFPAVIAELKKQGFKGAITIECELNGTRHDYVIQTRKYLQELLDR | not soluble
5 | MNANLNMDVIRSALLAGEVDDAYKVIFNARKKLELYKSTTGDSRYDPYYEFISILDDVVRGRRSWKDLKAYIDGNMDALSKFIDPDFLRSFPYYLFFSIDRYNVRFPYFDGKRCDDR | not soluble
6 | MTPHATPAPRVSAIVSLYNAERFVRGCLDDLLGQTLADSLEIIVIDACSPQGEGAIVQDYMRDHPNIVYVRTDEREGVYASWNRGVRLARAPYVTNANADDRHREDALERLAAALDEAPEAGFAYGDCRVGQTENERYADNAGQRVMRFPDFFAPATLLYCQLGPQPLWRRSVHDVVGFFDESYRACADWDFDIRLAAAFRGIHVPDALGLYLEHEAAITFRDDTMTRENDRVQRQWQHPEAVEERYRAAGVPCHTAEERALVHFDMALRALRFYPPWCYGAPAHNPGFARRCLRHALRLAPALAPAKELLALPDAVLTALDDLPSPLGLPSQATLAGVAAPLEHHHHHH | not soluble
7 | MQTFEIKEEFLVDGKPTKLISGAIHYFRMTPAQWEDSLYNLKALGANTIETYIPWNLHEPVEGVYDFEGMKDIVAFVSLAQELGLMVILRPSVYICAEWEFGGLPAWLLKEHVRLRSTDPRFIAKVRTYFSVLLPKLVPLQVTHGGPVIMMQVENEYGSYGMEKEYLRQTKQVMEEFGIDVPLFTSDGAWEEVLDVGTLIEEDVFVTGNFGSHSKENATVMKAFMAKHDKKWPIMCMEYWDGWFNRWGEPIIKRDGQDLANEVKDMLALGSLNLYMFHGGTNFGFYNGCSARGVLDLPQVTSYDYDALLTEAGEPTEKYFHVQRAIKEVCPEVWQAEPRRKTFGSLGTFPVQNSVSLLAVKDQMMTAQETMYPITMEEAESGYGYMLYSVNLKNYHHENKLKVVEASDRLHLFADGSLQTIQYQENLREEVMIKGTPEKEWIELDVLVENLGRVNYGFKLNGPTQVKGIRGGIMQDIHFHQGYRQYALTLSADQLKKIDYTAGKNPAQPSFYQAEFTLTDLADTFIDCRSYGKGVVIVNGINLGRYWQRGPIHSLYCPKEFLKKGTNEIVIFETEGIEINELIFCGQPIVKKLLTNDFSEIGSNIHNHIDS | not soluble
8 | ERVPEGSIRVAIASNNGEQLDGHFGSCLRFLVYQVSAKDASLVDIRSTLDVALAEDKNAWRVEQIQDCQVLYVVSIGGPAAAKVVRAGIHPLKKPKGCAAQEAIAELQTVMAGSPPPWLAKLVGVSAEERVRFSVSDDEDEAARA | soluble
9 | TSDQRKAEEHIEKEAKYLASLLDAGNLNNQANEKIIKDAGGALDVSASVIDTDGKVLYGSNGRSADSQKVQALVSGHEGILSTTDNKLYYGLSLRSEGEKTGYVLLSASEKSDGLKG | not soluble
10 | MSLSYLPGTTFEGQWESLYFGNNIKERLYSYATISLKIARFKQTGDSNQEDITTLITNNKLLLVHGPPGTGKTTLCKALCQKLSVRREFSDGSDTIDTNYKGIIIELSCARIFSKWFGESSKNISIVFKDIEELLKVNEGRGIFICLLIDEVEAIASSRTNLSSRNESTDGIRVVNTLLTQLDRLKKYHNFLALATSNLLDSLDDAFVDRADGVFYVGNPTAEGILHILKVCIEEMITSGIILFHARSTGVKFFNKYQDILRKIAIKCSVCFFLLFYFYDSFSFFPSEGHHHHHH | soluble
11 | TTAYMEYNTTGSVKGLDNVKIRRALNLATNRKGVVQAAVDTGSKPAIAFAPTGLAKTPDGTDLAKYVAPGYEYNKTEAAKLFKEGLAESGLTKLKLTITADADAPAAKNSVDYIKSTWEAALPGLTVEEKFVTFKQRLEDSRKQNFDIVVSLWGGDYPEGSTFYGLFKSDSQNNDGKFANKDYDAAYNKAISEDAMKPAESAKDYKEAEKILFEQGAYNPLYFRSGKGLQNPKLKGVIRNTTGLSIDFTHAYKK | not soluble
12 | MMVRILTRLGQVREAEEKYRRELVDFRMGEVYGNLRAIIADEDVEVRAGEAKPVKIKEVSIPANHIVFMCAYATNPLGHPIAAGEETPLPISMDRKADHATFVAAADGKISRNDLLGVLIILPVELTH | not soluble
13 | MLNVEPSFAEELRSSGVSLSATYLGSVPVVESINVMVSEMRVQVVSLVFLMA | not soluble
14 | MGSDKIHHHHHHMEAVERVNLLGLDGAALSELVGQWGGKPFRARQLQRWVHQRGADSFDAMTDLARDFRAQLARDCVIEALPVNTEQRSSDGTRKWLFDVGQGNAIETVFIPEDDRGTLCISSQAGCVVNCRFCSTGHQGFNRNLRASEIIGQLWWAKRVLEAAADTARLPGGKAGEDTRVISNVVMMGMGEPLLNYDQVLPALRLMLDDNAYGLSRRRVTVSTSGVVPMMDRLSQDCPVALAVSLHAPNDALRDELVPLNKKYPLNALLAACERYLAHAPRDFITFEYCMLDGINDTDQHARELIQLARQVRCKLNLIPFNPFPASGLKRSPSARVRVFAQRLMDAGIVTTVRKTRGDDIDAACGQLAGEVRDRTRITERNATRTIPIQQVHA | not soluble
15 | MGSDKIHHHHHHMTTEIRALYTRLPAIDRLLRDPAFSPLLAQHGHSQVVAQLRQMLDEAREQISQRQTLPDWSHDWQHACEQRLTAGQRSALRPVFNLTGTVLHTNLGRAIQAESAVEAVASAMRAPVTLEYDLDDAGRGHRDRAIADLLCQITGAEDACIVNNNAAAVLLMLAATASGREVVVSRGELVEIGGAFRIPDVMRQAGCQLHEVGTTNRTHAKDYRQAVNDNTALLMKVHTSNYSIEGFTKAVDEAELAAIGRELDVPVVADLGSGSLVDLSQYGLPKEPMPQEMIAAGVSLVSFSGDKLLGGPQAGIIVGKRALIAQLQSHPLKRALRADKMTLAALEATLRLYQHPEALREKLPTLRLLTRPAEEIRRLAERLQPDLAAHYADFAVSVAACQSQIGSGSLPVDRLPSAALTFTPHDGRGSRLEALAARWRALPCPVIGRIYDGRLWLDLRCLEDETRFMEMLLR | not soluble
